Laboratory results taken from patent publication US20250326840A1 (QURE BIOTECHNOLOGY SHANGHAI, published 2025).
Where two headings read alike, the source gives them in different places. Blank lines part the entries; values can stand above or below the binder they belong to.

Experiments:
[1] = target: T1, QP098 (cyno SIRPα (I7G9Z7) ECD(E31-R369)-flag-his) (cynomolgus); assay: SPR, Biacore 8K
T1 construct: the construct carries flag and his tags; also called cynoSIRPα (ECD); cynomolgus SIRPα
T1 chain: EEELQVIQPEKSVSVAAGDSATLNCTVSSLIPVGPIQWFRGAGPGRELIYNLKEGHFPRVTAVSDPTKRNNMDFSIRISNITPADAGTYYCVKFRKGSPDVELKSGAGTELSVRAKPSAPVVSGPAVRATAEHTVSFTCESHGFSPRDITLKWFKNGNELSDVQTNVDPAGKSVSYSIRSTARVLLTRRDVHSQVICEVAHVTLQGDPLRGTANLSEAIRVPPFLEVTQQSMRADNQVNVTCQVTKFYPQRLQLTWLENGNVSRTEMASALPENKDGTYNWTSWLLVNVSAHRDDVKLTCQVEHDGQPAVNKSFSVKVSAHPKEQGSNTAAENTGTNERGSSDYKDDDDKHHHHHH

[2] = target: T2, QP271 (rhesus SIRPα1-flag-his T-557-28) (rhesus monkey); assay: SPR, Biacore 8K
T2 construct: also called rhesus monkey SIRPα (QP271); monkeySIRPα1-flag-his
T2 chain: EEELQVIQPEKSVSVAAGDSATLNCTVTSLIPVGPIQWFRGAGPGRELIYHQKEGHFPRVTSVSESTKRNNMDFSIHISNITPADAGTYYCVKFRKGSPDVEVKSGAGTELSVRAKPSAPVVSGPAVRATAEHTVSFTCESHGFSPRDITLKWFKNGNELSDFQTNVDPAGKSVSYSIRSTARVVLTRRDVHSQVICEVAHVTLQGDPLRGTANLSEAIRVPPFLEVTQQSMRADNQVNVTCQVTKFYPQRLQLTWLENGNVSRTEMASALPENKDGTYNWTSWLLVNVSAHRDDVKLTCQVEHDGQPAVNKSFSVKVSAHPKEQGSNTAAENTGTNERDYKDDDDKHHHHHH

PD-L1-mouse Fc protein [3] = target: T3, PD-L1-mouse Fc protein (human, UniProt Q9NZQ7 19-239, limits assumed); assay: competitive ELISA, CD80 coated, PD-L1-mouse Fc
[4] = target: T4, human PD-L1 on HCC827 cells (human, UniProt Q9NZQ7 19-290); assay: FACS on HCC827 cells
T4 construct: whole, on cells; also called HCC827 cells naturally expressing human PD-L1

PD-L1-mouse Fc protein [5] = target: T3, PD-L1-mouse Fc protein; assay: competitive ELISA, PD-1 coated, PD-L1-mouse Fc
QP003 (PDL1-his) = assay: ELISA, QP003 (PDL1-his) captured on coated anti-his, anti-hFc detection; unit from the x axis Log(Conc.(nM))
PD-L1-his (QPP09) [6] = target: T5, PD-L1-his (QPP09) (human, UniProt Q9NZQ7 19-239, limits assumed); assay: ELISA, PD-L1 captured by coated anti-HIS antibody
T5 construct: also called human PD-L1; human PD-L1 recombinant protein

PD-L1-his (QPP09) [7] = target: T5, PD-L1-his (QPP09); assay: SPR, Biacore 8K
PD-L1-his (QPP09) [8] = target: T5, PD-L1-his (QPP09); assay: SPR, Biacore 8K; remark: listed apart in the source
Rhesus PD-L1 = target: T6, Rhesus PD-L1 (rhesus monkey, UniProt F6PJN1 19-239); assay: SPR, Biacore 8K
T6 construct: also called rhesus monkey PD-L1

PD-L1-mouse Fc protein [9] = target: T3, PD-L1-mouse Fc protein; assay: blocking ELISA: QP1138 (PD1-FC) coated, PDL1-mouse FC mixed with the antibody, HRP anti-mouse IgG; blocked partner: PD-1; unit from the x axis Log(Conc.(nM))
QP009 (SIRPα) = target: T7, QP009 (SIRPα) (Homo sapiens (Human)); assay: ELISA of hybridoma supernatant on QP009
T7 construct: Entry includes a C-terminal flag-his tag as printed; also called recombinant protein QP009
T7 chain: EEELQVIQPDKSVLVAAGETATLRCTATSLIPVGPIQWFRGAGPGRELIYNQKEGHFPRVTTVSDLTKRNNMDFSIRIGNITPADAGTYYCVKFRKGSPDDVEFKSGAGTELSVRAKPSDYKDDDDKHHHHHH

T5 sequence (Q9NZQ7 19-239 limits assumed): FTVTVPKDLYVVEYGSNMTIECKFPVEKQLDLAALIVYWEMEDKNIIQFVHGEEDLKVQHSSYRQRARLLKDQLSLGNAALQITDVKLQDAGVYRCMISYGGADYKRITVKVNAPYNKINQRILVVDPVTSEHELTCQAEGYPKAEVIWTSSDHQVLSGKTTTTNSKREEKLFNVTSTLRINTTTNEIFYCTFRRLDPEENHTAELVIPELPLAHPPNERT
T3 sequence (Q9NZQ7 19-239 limits assumed): as above
T4 sequence (Q9NZQ7 19-290): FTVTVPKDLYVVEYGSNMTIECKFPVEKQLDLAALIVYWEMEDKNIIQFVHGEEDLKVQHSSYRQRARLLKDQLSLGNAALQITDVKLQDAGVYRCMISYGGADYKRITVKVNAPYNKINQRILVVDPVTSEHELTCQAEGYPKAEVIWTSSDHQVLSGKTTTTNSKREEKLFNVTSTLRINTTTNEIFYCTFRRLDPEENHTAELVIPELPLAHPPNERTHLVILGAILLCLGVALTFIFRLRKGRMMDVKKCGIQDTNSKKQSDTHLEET
Sequence of QP003 (PDL1-his) (chain, as listed by the source limits assumed): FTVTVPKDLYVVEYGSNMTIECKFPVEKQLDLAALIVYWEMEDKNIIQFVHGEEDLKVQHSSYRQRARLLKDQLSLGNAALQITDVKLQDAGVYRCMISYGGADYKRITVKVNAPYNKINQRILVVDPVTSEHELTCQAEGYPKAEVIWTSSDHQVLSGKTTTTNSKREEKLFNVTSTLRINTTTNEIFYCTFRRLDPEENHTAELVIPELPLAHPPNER

Kd [1]: 2.14 nM | koff [1]: 0.0117 s⁻¹ | kon [1]: 5.46e+06 M⁻¹ s⁻¹ | Kd [2]: 0.522 nM | koff [2]: 0.00303 s⁻¹ | kon [2]: 5.81e+06 M⁻¹ s⁻¹ | IC50 (PD-L1-mouse Fc protein [3]): 0.742 nM | EC50 [4]: 0.142 nM | IC50 (PD-L1-mouse Fc protein [5]): 0.904 nM | EC50 (QP003 (PDL1-his)): 0.0307 nM | EC50 (PD-L1-his (QPP09) [6]): 0.122 nM | Kd (PD-L1-his (QPP09) [7]): 0.429 nM | koff (PD-L1-his (QPP09) [7]): 0.000433 s⁻¹ | kon (PD-L1-his (QPP09) [7]): 1.01e+06 M⁻¹ s⁻¹ | Kd (PD-L1-his (QPP09) [8]): 0.431 nM | koff (PD-L1-his (QPP09) [8]): 0.000433 s⁻¹ | kon (PD-L1-his (QPP09) [8]): 1.01e+06 M⁻¹ s⁻¹ | Kd (Rhesus PD-L1): 0.499 nM | koff (Rhesus PD-L1): 0.000779 s⁻¹ | kon (Rhesus PD-L1): 1.56e+06 M⁻¹ s⁻¹ | IC50 (PD-L1-mouse Fc protein [9]): 0.382 nM
B1: Q-1801 (bispecific antibody, human IgG1, kappa, L234A L235A)
heavy: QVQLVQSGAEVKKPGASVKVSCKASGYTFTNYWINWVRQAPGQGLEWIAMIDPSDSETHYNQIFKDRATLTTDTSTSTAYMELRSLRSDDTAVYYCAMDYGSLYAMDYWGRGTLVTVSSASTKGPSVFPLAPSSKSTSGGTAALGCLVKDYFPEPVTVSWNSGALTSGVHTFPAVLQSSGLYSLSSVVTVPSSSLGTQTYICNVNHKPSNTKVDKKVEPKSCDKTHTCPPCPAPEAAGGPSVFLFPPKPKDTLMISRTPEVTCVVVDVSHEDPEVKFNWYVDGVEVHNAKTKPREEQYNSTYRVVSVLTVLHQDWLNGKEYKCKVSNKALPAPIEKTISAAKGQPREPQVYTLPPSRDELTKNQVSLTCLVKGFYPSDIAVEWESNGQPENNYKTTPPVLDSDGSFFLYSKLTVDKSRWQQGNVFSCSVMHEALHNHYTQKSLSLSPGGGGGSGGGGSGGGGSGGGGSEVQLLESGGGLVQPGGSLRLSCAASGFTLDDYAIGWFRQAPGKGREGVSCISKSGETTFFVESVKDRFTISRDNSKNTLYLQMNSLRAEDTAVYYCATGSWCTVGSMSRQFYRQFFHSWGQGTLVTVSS
light: DIVLTQSPDSLAVSLGERATINCRASQSVRSSGYNWIFWYQQKPGQPPKLLIYLASNRDSGVPDRFSGSGSGTDFTLTISSLQAEDVAVYYCQHSRELPTFGQGTKLEIKRTVAAPSVFIFPPSDEQLKSGTASVVCLLNNFYPREAKVQWKVDNALQSGNSQESVTEQDSKDSTYSLSSTLTLSKADYEKHKVYACEVTHQGLSSPVTKSFNRGEC
notes: Anti-SIRPα VH-CH1-Fc(L234A, L235A, K338A)-(G4S)4-anti-PD-L1 VHH heavy chain; kept as one molecule; also called CHO44; QP32820279

binding result (QP009 (SIRPα)): binds
B2: 71C10 (antibody, V domains shown)
VH: QVQLQQPGTELVRPGASVKLSCKASGYTFTNYWINWVKQRPGQGLEWIAMIDPSDSETHYNQIFKDKATLTVDKSSNTAYMQLSSLTSGDSAVYYCAMDYGSLYAMDYWGRGTSVTVSS
VL: DIVLTQSPASLAVSLGQRATISCRASKSVSSSGYNYIFWYQQKPGQPPKLLIYLASNLDSGVPARFSGSGSGTDFTLNIHPVEEEDAATYYCQHSRELPTFGGGTKLEIK
notes: Mouse hybridoma antibody tested as culture supernatant; also called hybridoma monoclonal antibody 71C10; single-cell clone 71C10
